Results published in patent publication US20250051449A1 (SURFACE ONCOLOGY, published 2025).
Changes are numbered by the printed parent chain.

T1: human CD112R expressed on Jurkat cells (human, UniProt Q6DKI7 1-326)
T1 construct: whole, on cells; Used for both Jurkat-CD112R OE cells and wild type Jurkat cells; which cells is said under assay; also called PVRIG; Jurkat-CD112R OE
T1 sequence (looked up): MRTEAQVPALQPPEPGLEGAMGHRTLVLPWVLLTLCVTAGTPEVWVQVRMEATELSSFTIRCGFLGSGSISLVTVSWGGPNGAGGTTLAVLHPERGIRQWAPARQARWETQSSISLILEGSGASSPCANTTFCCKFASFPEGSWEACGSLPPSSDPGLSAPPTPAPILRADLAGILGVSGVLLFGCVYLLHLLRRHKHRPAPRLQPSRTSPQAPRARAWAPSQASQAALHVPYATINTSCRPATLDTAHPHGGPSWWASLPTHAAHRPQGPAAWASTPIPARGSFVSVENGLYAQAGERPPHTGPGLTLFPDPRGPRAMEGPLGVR

B1: Antibody 46 (antibody, V domains shown)
VH: EVQLVESGGGLVQPGRSLRLSCTASGFTFGDYAMSWFRQAPGKGLEWVGFIGSKAYGGTTEYTASVKGRFTISRDGSKSIAYLQMNSLKTEDTAVYYCARGPRRYTYGMDVWGQGTTVTVSS
VL: DIQMTQSPSSLSASVGDRVTITCRASQSISSYLNWYQQKPGKAPKLLIYAASSLQSGVPSRFSGSGSGTDFTLTISSLQPEDFATYYCQQSSTPLTFGGGTKVEIK
notes: in the mouse tumor studies it was used as mouse IgG2a; also called antibody clone number 46; clone 46
B2: Antibody 32 (antibody, V domains shown)
VH: QVQLVQSGAEVKKPGSSVKVSCKASGGTFSSYAISWVRQAPGQGLEWMGGIIPISGTANYAQKFQGRVTITADESTSTAYMELSSLRSEDTAVYYCARDTGRGYTRHFWFDPWGQGTLVTVSS
VL: B1 VL with S92D, T93I, P94L, L95Y
notes: Purified as IgG; compared with an IgG1 isotype control and detected with anti-human IgG Fc; also called antibody clone number 32; parent clone 32
B3: Antibody 33 (antibody, V domains shown)
VH: B2 VH with S30G, S31N, S55P, T57I
VL: B1 VL with S92D, T93I, P94L, L95Y
notes: Purified as IgG; compared with an IgG1 isotype control and detected with anti-human IgG Fc; also called antibody clone number 33; clone 33
B4: Antibody 36 (antibody, V domains shown)
VH: B2 VH with S30A, S31T, I52F, I54L
VL: B1 VL with S92D, T93I, P94L, L95Y
notes: Purified as IgG; compared with an IgG1 isotype control and detected with anti-human IgG Fc; also called antibody clone number 36; clone 36
B5: Antibody 34 (antibody, V domains shown)
VH: B2 VH with Y32A, I52F, T57H
VL: B1 VL with S92D, T93I, P94L, L95Y
notes: Purified as IgG; compared with an IgG1 isotype control and detected with anti-human IgG Fc; also called antibody clone number 34; clone 34
B6: Antibody 35 (antibody, V domains shown)
VH: B2 VH with Y32A, G50N, S55V, T57I
VL: B1 VL with S92D, T93I, P94L, L95Y
notes: Purified as IgG; compared with an IgG1 isotype control and detected with anti-human IgG Fc; also called antibody clone number 35; clone 35
B7: Antibody 58 (antibody, V domains shown)
VH: B1 VH with A55F, T59E
VL: B1 VL
notes: Purified as IgG; compared with an IgG1 isotype control and detected with anti-human IgG Fc; also called antibody clone number 58; clone 58

target: T2, mouse CD112R overexpressed on 293T cells (mouse); assay: flow cytometry, 293T cells overexpressing mouse CD112R
T2 construct: whole, on cells; also called 293T.mCD112R; 293T-mouse CD112R
Procedure: The ability of anti-CD112R antibodies to bind to mouse CD112R was evaluated on cells overexpressing mouse CD112R. 0.8×10⁵ 293T cells (ATCC CRL-3216) that were engineered to overexpress mouse CD112R (293T.mCD112R) were added to each well of a 96-well V bottom plate and stained with either anti-CD112R antibodies or an IgG1 isotype control at a starting concentration of 10 μg/mL, with 3-fold serial dilutions for 30 minutes at 4° C. Cells were washed twice with PBS+2% FCS and resuspended with Alexa Fluor® 647 anti-human IgG Fc antibody (Biolegend, Cat #409320) diluted 1:100 in PBS+2% FCS and incubated at 4° C. for 20 minutes. Cells were subsequently washed twice and resuspended in PBS+2% FCS. Cellular data was acquired using a LSRFortessa X-20 (BD Biosciences) and analyzed with FlowJo software (Tree Star).
Results are depicted in FIG. 17 and Table 11. Quantitation of antibody binding to 293T.mCD112R cells was assessed by the geometric mean fluorescent intensity (gMFI) of the Alexa Fluor® 647 signal.

Going from B1 to B2, the “gMFI (fold increase over isotype)” value falls from 74.8 fold increase over isotype to 14.9 fold increase over isotype.

First: B3
Second: B4
The “gMFI (fold increase over isotype)” value of the first is lower: 73.3 fold increase over isotype for the first, 76.3 fold increase over isotype for the second.

Compared with B5, B6 is lower in “gMFI (fold increase over isotype)” value: 72.2 fold increase over isotype for the first, 55.6 fold increase over isotype for the second.

B7 was tested, and the “gMFI (fold increase over isotype)” value was 79.4 fold increase over isotype.

target: T3, mouse CD112R-hIgG4 fusion protein (mouse; human); assay: ELISA: coated antibody, titrated mouse CD112R-hIgG4, anti-IgG4 HRP
T3 construct: also called soluble mouse CD112R; soluble murine CD112R
Procedure: The ability of anti-CD112R antibodies to bind to soluble mouse CD112R was evaluated by ELISA. Briefly. 96 well Nunc Maxisorp plates were coated with 1 μg/mL of anti-CD112R antibodies or isotype control (Biolegend. Cat #403502) in PBS overnight at 4° C. […] After blocking, plates were washed 6× with PBST. Next. 100 μL of a mouse CD112R-hIgG4 fusion protein in PBS+1% BSA was added at a final starting concentration of 10 μg/mL, with 4-fold serial dilutions. Plates were incubated at room temperature for 1.5 hours. Next plates were washed 6× with PBST and then incubated with anti-IgG4 HRP (Thermo Fisher, Cat #MA1-33437) in 100 μL for 1 hour at room temperature. Plates were then washed 6× with PBST and developed with TMB substrate (Life Technologies. Cat #002023). The reaction was stopped with an equal volume of stop solution (Life Technologies. Cat #SS04). Absorbance at 450 nm (O.D. 450) was measured on a SpectraMax plate reader.

B1 and B2 are within 1.5-fold of each other in EC50: 0.181 µg/mL for the first, 0.27 µg/mL for the second.

Compared with B3, B4 is 1.5-fold lower in EC50: 0.0383 µg/mL for the first, 0.0251 µg/mL for the second.

B5 and B6 are within 1.5-fold of each other in EC50: 0.0242 µg/mL for the first, 0.0215 µg/mL for the second.

B7 showed an EC50 of 0.412 µg/mL.

target: T1, human CD112R expressed on Jurkat cells; assay: flow cytometry, Jurkat cells over-expressing human CD112R, 0.63 ug/mL antibody
Procedure: The ability of anti-CD112R antibodies to bind to CD112R expressed on cells was evaluated. 1×10⁵ Jurkat cells (acute T cell leukemia cell line, ATCC #TIB-152) that were either wild type or engineered to over-express human CD112R (Jurkat-CD112R OE) were added to each well of a 96-well V bottom plate and stained with either anti-CD112R antibodies or an IgG1 isotype control (0.63 μg/mL) for 1 hour at 4° C. Cells were washed twice with PBS+2% FCS and resuspended with Alexa Fluor® 647 anti-human IgG Fc antibody (Biolegend, Cat #409320) diluted 1:100 in PBS+2% FCS and incubated at 4° C. for 30 minutes. Cells were subsequently washed twice and resuspended in PBS+2% FCS. Cellular data was acquired using a LSRFortessa X-20 (BD Biosciences) and analyzed with FlowJo software (Tree Star).
Results are depicted in FIG. 1. Quantitation of antibody binding to Jurkat-CD112R OE cells was assessed by the geometric mean fluorescent intensity (gMFI) of the Alexa Fluor® 647 signal.

First: B1
Second: B2
The “gMFI (fold increase over isotype)” value of the first is lower: 23.8 fold increase over isotype for the first, 27.9 fold increase over isotype for the second.

Compared with B3, B4 is lower in “gMFI (fold increase over isotype)” value: 34.2 fold increase over isotype for the first, 31 fold increase over isotype for the second.

First: B5
Second: B6
The “gMFI (fold increase over isotype)” value of the first is higher: 33.8 fold increase over isotype for the first, 32.1 fold increase over isotype for the second.

With B7 the “gMFI (fold increase over isotype)” value was 37.3 fold increase over isotype.
